This is an account of results in patent US7081343.

In the series the target is T7-RelA (UniProt Q04206).
T7-RelA, sequence (Q04206 whole entry): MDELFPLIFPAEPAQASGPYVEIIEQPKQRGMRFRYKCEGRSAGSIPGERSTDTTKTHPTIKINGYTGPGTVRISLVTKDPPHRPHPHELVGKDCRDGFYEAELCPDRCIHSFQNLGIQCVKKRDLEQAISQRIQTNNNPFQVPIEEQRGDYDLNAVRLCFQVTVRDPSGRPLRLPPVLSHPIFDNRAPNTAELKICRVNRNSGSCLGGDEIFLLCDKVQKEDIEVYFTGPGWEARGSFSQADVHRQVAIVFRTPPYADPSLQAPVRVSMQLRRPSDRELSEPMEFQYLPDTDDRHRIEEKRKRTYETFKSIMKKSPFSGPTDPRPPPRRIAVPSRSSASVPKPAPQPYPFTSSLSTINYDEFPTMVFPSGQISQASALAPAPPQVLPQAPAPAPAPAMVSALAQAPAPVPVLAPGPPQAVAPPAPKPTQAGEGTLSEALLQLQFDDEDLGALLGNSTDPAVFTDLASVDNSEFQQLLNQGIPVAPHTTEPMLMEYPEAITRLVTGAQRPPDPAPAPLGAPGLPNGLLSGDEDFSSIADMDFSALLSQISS

Regarding CBP, the “acetylation of T7-RelA (anti-T7 immunoprecipitation, anti-acetylated lysine blot)” value was “Co-expression of either p300 or CBP with RelA produced dose related acetylation of T7-Rel A”.

p300: the “acetylation of T7-RelA (anti-T7 immunoprecipitation, anti-acetylated lysine blot)” value is recorded as “Co-expression of either p300 or CBP with RelA produced dose related acetylation of T7-Rel A”.
